Source: patent publication US20160106863A1 (IMMUNOGEN, published 2016)

How the values were obtained:
T47D cells (human) = T47D cells (human) (UniProt P15328); test: flow cytometry binding on T47D cells
EGFR = EGFR (UniProt P00533 25-1210, limits assumed); test: cell-based or functional assay

Sequence of T47D cells (human) (P15328 25-234, stated change not applied): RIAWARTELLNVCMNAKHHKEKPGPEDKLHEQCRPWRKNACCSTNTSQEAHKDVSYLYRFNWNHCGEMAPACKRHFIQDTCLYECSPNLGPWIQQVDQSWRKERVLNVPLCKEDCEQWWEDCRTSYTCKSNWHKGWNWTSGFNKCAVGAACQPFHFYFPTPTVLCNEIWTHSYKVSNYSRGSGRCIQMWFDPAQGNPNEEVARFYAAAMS

## huMOV19 antibody
T47D cells (human)
  EC50: 0.203 nM

B1: huML66-sulfo-SPDB-1d conjugate (antibody, human IgG1, kappa, V domains shown)
VH: QVQLQESGPGLVKPSETLSLTCTVSGLSLASNSVSWIRQPPGKGLEWMGVIWNHGGTDYNPSIKSRLSISRDTSKSQVFLKMNSLTAADTAMYFCVRKGGIYFDYWGQGVLVTVSS
VL: DTVLTQSPSLAVSPGERATISCRASESVSTLMHWYQQKPGQQPKLLIYLASHRESGVPARFSGSGSGTDFTLTIDPMEAEDTATYYCQQSRNDPWTFGQGTKLELKR
modifications: compound 1d linked via sulfo-SPDB linker, average of 3.0 molecules per antibody; attachment residues not stated
EGFR
  EC50 in pM, in vitro cytotoxicity (WST-8), Detroit562 cells: 110 pM
  EC50 in pM, in vitro cytotoxicity (WST-8), Detroit562 cells, + block (excess unconjugated antibody): 960 pM
  EC50 in pM, in vitro cytotoxicity (WST-8), NCI-H292 cells: 20 pM
  EC50 in pM, in vitro cytotoxicity (WST-8), NCI-H292 cells, + block (excess unconjugated antibody): 690 pM
  EC50 in pM, in vitro cytotoxicity (WST-8), NCI-H1703 cells: 70 pM
  EC50 in pM, in vitro cytotoxicity (WST-8), NCI-H1703 cells, + block (excess unconjugated antibody): 1310 pM
